Drawing on PMC12375970 (2025), this text covers Kd for 1 molecule.

This test has as its target importin-alpha2 (mImpα2) (Mus musculus, UniProt P52293). Briefly: MST.

PVKKPKIRRKKSLS [TAF8 NLS NLS]: the Kd – broadly, the free concentration of one partner at which half of the binding sites on the other are occupied at equilibrium, for simple one-to-one binding – was roughly 1000 nM.
